B1: extracellular domain of A. thaliana TDR (residues 30-642) [modified: N-glycosylated at N111, N356, N378, N471 and N525 (one GlcNAc visible on each in the structures); N-glycosylated at N111, N356, N378, N471 and N525 (one … (parent)
chain 1: HEVPSGPNPISN
chain 2: LKFSPQLLSLLSLKTSLSGPPSAFQDWKVPVNGQNDAVWCSWSGVVCDNVTAQVISLDLSHRNLSGRIPIQIRYLSSLLYLNLSGNSLEGSFPTSIFDLTKLTTLDISRNSFDSSFPPGISKLKFLKVFNAFSNNFEGLLPSDVSRLRFLEELNFGGSYFEGEIPAAYGGLQRLKFIHLAGNVLGGKLPPRLGLLTELQHMEIGYNHFNGNIPSEFALLSNLKYFDVSNCSLSGSLPQELGNLSNLETLFLFQNGFTGEIPESYSNLKSLKLLDFSSNQLSGSIPSGFSTLKNLTWLSLISNNLSGEVPEGIGELPELTTLFLWNNNFTGVLPHKLGSNGKLETMDVSNNSFTGTIPSSLCHGNKLYKLILFSNMFEGELPKSLTRCESLWRFRSQNNRLNGTIPIGFGSLRNLTFVDLSNNRFTDQIPADFATAPVLQYLNLSTNFFHRKLPENIWKAPNLQIFSASFSNLIGEIPNYVGCKSFYRIELQGNSLNGTIPWDIGHCEKLLCLNLSQNHLNGIIPWEISTLPSIADVDLSHNLLTGTIPSDFGSSKTITTFNVSYNQLIGPIPSGSFAHLNPSFFSSNEGLCGDLVGKPCNSDRFNAGNADIDG

Variants of: B1
Test: ITC
Conditions: with Tracheary Element Differentiation Inhibitory Factor (TDIF) peptide [modified: hydroxyproline at 4 and 7, parent: 103 nM

Question: chain 2 W324A was tested. Which Kd did it give?
Answer: 862 nM

Question: chain 2 F250A was tested. Which Kd did it give?
Answer: 307 nM

Question: Which Kd does the source give for chain 2 F252A here?
Answer: 787 nM

Question: chain 2 R109A F132A S133A S158A Y159A was tested. Which Kd did it give?
Answer: 3240 nM

Question: chain 2 R392A R394A was tested. Which Kd did it give?
Answer: 306 nM

Question: chain 2 F250A F252A was tested. Which Kd did it give?
Answer: 887 nM

Question: chain 2 Y205A was tested. Which Kd did it give?
Answer: 1650 nM

Question: How did the Kd turn out when chain 2 S276A was run?
Answer: 455 nM

Same assay, conditions: with extracellular domain of A. thaliana TDR (residues 30-642) [modified: N-glycosylated at N111, N356, N378, N471 and N525 (one GlcNAc visible on each in the struct); parent: 103 nM

Question: How did the Kd turn out when chain 1 I10A was run?
Answer: 641 nM

Question: For chain 1 H1A E2A V3A, which Kd is on record?
Answer: 252000 nM

Question: Which Kd does the source give for chain 1 V3A here?
Answer: 1400 nM

Question: Which Kd does the source give for chain 1 N8A here?
Answer: 308 nM

Question: chain 1 H1R was tested. Which Kd did it give?
Answer: 329 nM

Question: Which Kd does the source give for chain 1 H1A here?
Answer: 11800 nM

Question: For chain 1 E2R, which Kd is on record?
Answer: 543 nM

Question: With chain 1 E2A as the variant, how does the Kd read?
Answer: 327 nM

Question: Which Kd does the source give for chain 1 N12A here?
Answer: 4700 nM

Question: With chain 1 G6A as the variant, how does the Kd read?
Answer: 1440 nM

Question: chain 1 G6T was tested. Which Kd did it give?
Answer: 2080 nM

Same assay, conditions: with extracellular domain of A. thaliana TDR (residues 30-642) [modified: N-glycosylated at N111, N356, N378, N471 and N525 (one GlcNAc visible on each in the struct); parent: 1

Question: How did the ratio to parent turn out when chain 1 I10A was run?
Answer: 6.2

Question: Which ratio to parent does the source give for chain 1 H1A E2A V3A here?
Answer: 2450

Question: Which ratio to parent does the source give for chain 1 N12A here?
Answer: 45.6

Same assay, conditions: with Tracheary Element Differentiation Inhibitory Factor (TDIF) peptide [modified: hydroxyproline at 4 and 7, parent: 1

Question: With chain 2 F252A as the variant, how does the ratio to parent read?
Answer: 7.6

Question: Which ratio to parent does the source give for chain 2 Y205A here?
Answer: 16

— article PMC5383425, “Differential CLE peptide perception by plant receptors implicated from structural and functional analyses of TDIF-TDR interactions” (PLoS ONE, 2017)
